Measured values taken from IntAct's records for PubMed 25150978.

Biological target: arhg7_human ARHGEF7 (UniProt Q14155)

Question: How did the “effect of a mutation on the interaction” value turn out when “Ras-related C3 botulinum toxin substrate 1 (Homo sapiens) (from UniProt P63000-1) G15A” was run?
Answer: increasing interaction strength
